The text below walks through data of patent publication US9981059B2, “Sugar chain-polypeptide complex” (Glytech, Inc., priority 2013, dated 2018).

The nature of data set [1]: Steel ball loading test of hydrogel property. The format is physicochemical. More on the design: key to position of the steel ball / hydrogel state: The state of the steel ball staying near the hydrogel surface was set as ◯; sinking after loading and staying internally was set as Δ; sinking to the bottom of the Durham's tube was set as X; * was added to those where the hydrogel was not uniform and clouding or insoluble matter (precipitate) was observed. The protocol: Ten mg of the sugar chain-polypeptide complex or 10 mg of the control polypeptide were dissolved in 500 μL of ultrapure water to prepare 2 wt. % polypeptide solutions. […] In doing so, citrate-phosphate buffer (pH 2.0 and 3.5), phosphate buffer (pH 7.4), and phosphate-sodium hydroxide buffer (pH 11.5) were employed as the buffer. The surface of the hydrogel inside the Durham's tube was horizontally placed, left still for 20 minutes under room temperature conditions, and a steel ball (diameter 1.56 mm, weight 16 mg, FUNABE SEIKO Co., Ltd.) was loaded on the hydrogel. After 10 minutes, the position of the steel ball was observed by visual confirmation.
The position of the steel ball inside the Durham's tube was evaluated in 3 grades. The state of the steel ball staying near the hydrogel surface was set as ◯, sinking after loading and staying internally was set as Δ, and sinking to the bottom of the Durham's tube was set as X. In addition, * was added to those where the hydrogel was not uniform and clouding or insoluble matter (precipitate) was observed. A hydrogel where the steel ball stays around the surface (◯) and no clouding or insoluble matter is seen (no *) was thought to be a gel that is transparent and uniform.

Data set [2] is described as follows: Steel ball loading test of hydrogels comprising rat blood plasma (utility as hemostatic matrix). The format is physicochemical. Particulars: polypeptide 0.5 wt. %. Here is the method:
Aqueous polypeptide solutions were prepared with a method similar to Example 1. Blood was collected from 7 weeks-old Crlj:WI rats with heparin sodium injection (Ajinomoto), and blood plasma was obtained from the supernatant after centrifugation treatment. The aqueous polypeptide solution, blood plasma, and PBS were added to a Durham's tube, and hydrogels was prepared so that the plasma concentration was 5-50% and the polypeptide concentration was 0.5 wt. %. Subsequently, these were left for 20 minutes at room temperature condition, and then steel ball loading tests were carried out with a method similar to Example 1.

The target of data set [3] is T1, Bovine Serum Albumin (BSA) (Bos taurus, UniProt P02769).
T1 construct: purchased Life Technologies A13100
T1 sequence (P02769 25-607): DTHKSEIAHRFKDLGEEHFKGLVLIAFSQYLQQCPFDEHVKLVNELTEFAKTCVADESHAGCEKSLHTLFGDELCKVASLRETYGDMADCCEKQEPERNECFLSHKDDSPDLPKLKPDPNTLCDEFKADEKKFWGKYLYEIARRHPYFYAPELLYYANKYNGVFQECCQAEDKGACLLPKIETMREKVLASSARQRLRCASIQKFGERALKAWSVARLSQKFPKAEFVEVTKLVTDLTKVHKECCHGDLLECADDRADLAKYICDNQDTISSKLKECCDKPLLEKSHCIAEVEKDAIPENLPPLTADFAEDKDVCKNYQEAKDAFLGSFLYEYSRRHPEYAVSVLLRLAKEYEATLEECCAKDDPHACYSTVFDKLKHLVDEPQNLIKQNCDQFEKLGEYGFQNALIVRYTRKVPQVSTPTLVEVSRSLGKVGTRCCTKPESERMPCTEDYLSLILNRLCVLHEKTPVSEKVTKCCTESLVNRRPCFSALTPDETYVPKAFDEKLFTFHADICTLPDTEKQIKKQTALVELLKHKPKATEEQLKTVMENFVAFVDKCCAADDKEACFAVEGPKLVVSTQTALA
Description: Controlled release capability for acidic protein encapsulated in hydrogel. Here is the method:
A phosphate buffer (pH 7.4) was employed as the buffer. Moreover, Bovine Serum Albumin (BSA) fluorescently labeled with Alexa Fluor™ 488 (A13100, Life Technologies) was employed as the acidic protein to be encapsulated into the hydrogel.
The components were added to the tube so that the buffer salt concentration is 0.15 M, the BSA concentration is 5 μM, and the polypeptide concentration is 0.25-1 wt. %, and mixed by vortex. The mixture was added to the Multiwell Insert System (351130, BD) at 50 μL each, and left overnight in an incubator at 37 degrees (CO2 incubator for cell culture, MCO-18AIC, SANYO) with shading to prepare BSA-encapsulating hydrogels. In the incubator at 37 degrees, the Insert System was immersed in a 96-well flat bottom plate (353928, BD) with a buffer identical to the hydrogel added at 225 μL each, and the plate was shaken with a plate shaker (MICRO PLATE MIXER NS-P, AS ONE Corporation, rotation speed: ⅕ of scale) to initiate the test (0 hours). Subsequently, the fluorescence amount that leaked out over time on the flat bottom plate side was measured with a fluorescence plate reader (SpectraMax M3, Molecular Devices, LLC.). A standard curve was created with the identical fluorescently-labeled BSA, and the protein concentration was calculated from the amount of fluorescent dye that leaked out. A solution of only BSA added to the buffer (W/O SAP) was employed as the control.

Data set [4] in a line: Circular dichroism (CD) measurement of β sheet structure. The format is physicochemical. Here is the method: In general, the characteristics of the wavelengths observed when a substance has a β sheet structure are a positive absorption at around 197 nm and a negative absorption at around 216 nm. For this reason, focus was placed on the size of these wavelengths in the present invention, and the influence of pH on the β sheet structure was investigated.
One to ten millimolars of aqueous sodium hydroxide solutions were added to each of these aqueous polypeptide solutions to adjust the pH, and 100 mM aqueous polypeptide solutions at having pH 2 or pH 7 were created. These aqueous solutions were transferred to quartz cells having an optical path length of 0.1 cm. The CD spectrum was then measured with a spectrum polarimeter (J-805, Jasco) at wavelengths of 185-260 nm for ellipticity (millidegree). The mean residue ellipticity θ was calculated with the following formula: [θ]=(θobs/10·l·c)/r
wherein θobs represents the ellipticity measured in millidegree, l represents the cell length (cm), c represents the concentration (M), and r represents the number of amino acid residues.

Data set [5] in a line: Kinetic viscosity measurement with rheometer. The class given is physicochemical. To be noted: 0.5 wt. % hydrogel, pH 7, 25 degrees. Here is the method:
A rheometer (MCR302, Anton Paar GmbH) equipped with a stainless steel parallel plate having a diameter of 25 mm with 0.3 mm gap height was employed for kinetic viscosity measurement. […] Five millimolars of aqueous sodium hydroxide solution was added to these aqueous polypeptide solutions in order to adjust the pH to prepare 0.5 wt. % hydrogels at pH 7. Subsequently, these hydrogels were quickly transferred to a rheometer set at 25 degrees, and phase angle (tan δ) was monitored over a time course. (frequency=1 Hz, distortion=10%)

Setting [6] is: hydrogel concentration 0.5 wt. %, pH 3.5.
[7] abbreviates: hydrogel concentration 0.5 wt. %, pH 7.4.

On to C(PEG2000)-(RADA)4 [Compound 14], for which, in data set [1] (0.5 wt. %, pH 3.5 and pH 7.4), the “hydrogel formed (in words)” value is given as “uniform hydrogels were not formed”. The “position of the steel ball / hydrogel state” value in data set [1] (setting [6]) and in data set [1] (setting [7]) was “X” throughout.

As for 2C(Maltose)-(RADA)4 [Compound 8], in data set [1] (Example 4, 0.5 wt. %, pH 7.4), the “hydrogel formed (in words)” value was “did not form hydrogels”. Further, the “position of the steel ball / hydrogel state” value is on record as “◯*” in data set [1] (setting [6]) and “X*” in data set [1] (setting [7]).

On to (RADA)4 [Compound 1], for which the “hydrogel formed (in words)” value in data set [1] (1 wt. %, pH 2.0) is “transparent and uniform hydrogel”; in data set [1] (1 wt. %, pH 3.5 or higher), “ununiform hydrogel with clouding”. Moreover, the “position of the steel ball / hydrogel state” value in data set [1] (setting [6]) is listed as “X*”; in data set [1] (setting [7]), “X*”; in data set [1] (peptide concentration 1 wt. %, pH 2.0) it was “◯”; in data set [1] (peptide concentration 1 wt. %, pH 3.5), “Δ*”; in data set [1] (peptide concentration 1 wt. %, pH 7.4) it was “X*”; in data set [1] (peptide concentration 1 wt. %, pH 11.5), “X*”. Further, the “position of the steel ball / hydrogel state” value is “X*” in data set [2] (plasma concentration 5%), “X*” in data set [2] (plasma concentration 10%), “Δ*” in data set [2] (plasma concentration 25%) and “Δ*” in data set [2] (plasma concentration 50%). For the same substance, the “hydrogel formed in presence of blood plasma (in words)” value in data set [2] (plasma concentration 5-50%) was “clouded and insoluble matters were observed at all plasma concentrations”. Besides, in data set [3] (pH 7.4, polypeptide 0.5 wt. % or less), the “controlled release capability (BSA leakage speed vs solution without any polypeptide)” value was “does not possess controlled release capability”. In data set [3] (phosphate buffer pH 7.4, 37 degrees, polypeptide 0.25-1 wt. %), the “leakage of BSA encapsulated in the hydrogel” value is “leaked out in a short time”. For the same substance, in data set [4] (neutral pH), the “β sheet structure formation” value was “formed almost no β sheet structure”. Also, the “molar ellipticity (CD)” value is “high molar ellipticity” in data set [4] (pH 2, 100 mM aqueous polypeptide solution) and “significantly reduced” in data set [4] (pH 7, 100 mM aqueous polypeptide solution). For the same substance, the “rigidity of hydrogel formed” value in data set [5] was “a fragile hydrogel is formed, or an ununiform hydrogel that is only partially rigid is formed”. Further, the “phase angle (tan δ) over a time course” value in data set [5] (frequency 1 Hz, distortion 10%) is given as “large phase angle”.

As for “(RATARAEA)2 (RATARAEARATARAEA) [Compound 16]”, the “hydrogel formed (in words)” value in data set [1] (0.5 wt. %, pH 3.5 and pH 7.4) is “ununiform and clouded hydro gel”. The “position of the steel ball / hydrogel state” value in data set [1] (setting [6]) and in data set [1] (setting [7]) was “X*” in each case.

As for 3C(Maltose)-(RADA)4 [Compound 12], in data set [1] (0.5 wt. %, pH 3.5 and pH 7.4), the “hydrogel formed (in words)” value is “transparent and uniform hydrogels”. The “position of the steel ball / hydrogel state” value in data set [1] (setting [6]) and in data set [1] (setting [7]) was “◯” in each case.

“C(Maltose)-(RADA)4-C(Maltose) [Compound 10]”: the “hydrogel formed (in words)” value in data set [1] (Example 4, 0.5 wt. %, pH 7.4) is listed as “did not form hydrogels”. Besides, the “position of the steel ball / hydrogel state” value was “◯*” in data set [1] (setting [6]) and “X*” in data set [1] (setting [7]).

On to 2C(Maltotriose)-(RADA)4 [Compound 9], for which the “hydrogel formed (in words)” value in data set [1] (0.5 wt. %, pH 3.5 and pH 7.4) is “transparent and uniform hydrogels”. The “position of the steel ball / hydrogel state” value in data set [1] (setting [6]) and in data set [1] (setting [7]) was “◯” in each case.

Consider “C(Maltotriose)-(RADA)4-C(Maltotriose) [Compound 11]”, for which, in data set [1] (0.5 wt. %, pH 3.5 and pH 7.4), the “hydrogel formed (in words)” value is “transparent and uniform hydrogels”. Further, the “position of the steel ball / hydrogel state” value in data set [1] (setting [6]) and in data set [1] (setting [7]) was “◯” in each case.

As for C(DiGlcNAc)-(RADA)4 [Compound 2], the “controlled release capability (BSA leakage speed vs solution without any polypeptide)” value in data set [3] (pH 7.4, concentration as low as 0.25 wt. %) is recorded as “showing controlled release capability”.
